Data from patent US20090246189A1 (Biogen, published 2009).

Molecular target: T1, endogenous EGFR in mouse ventral midbrain (VM) tissue (mouse, UniProt Q01279 25-1210)
T1 construct: Native protein in a tissue extract
Experiment: co-immunoprecipitation from mouse ventral midbrain extracts, Western blot
Procedure: COS-7 or HEK 293 cells (100 mm dishes) were transfected with Sp35, EGFR and Sp35/EGFR. The cells were harvested after 48 hours and lysed in 1 ml lysis buffer (50 mM HEPES, pH 7.5, 150 mM NaCl, 1.5 mM MgCl₂, 1 mM EDTA, 1% Triton x-100, 10% glycerol) or RIPA buffer (50 mM TRIS, pH 7.2, 1% Triton X-100, 0.5% sodium deoxycholate, 0.1% SDS, 150 mM NaCl, 10 mM MgCl₂, 5% glycerol) for 30 minutes at 4° C. After centrifugation at 14,000×g for 15 minutes, the supernatants were incubated with Protein A/G-Sepharose beads (Santa Cruz Biotechnology) at 4° C. for 1 hour, and then 200 μl of the precleared lystates were incubated with either anti-EGFR (Santa Cruz Biotechnology) at 4° C. for 1 hour, anti-Sp35 antibody (Biogen Idec, described in U.S. Provisional Patent Application No. 60/697,336, which is incorporated by reference herein in its entirety) followed by treatment with Protein A/G-Sepharose beads. The beads were washed 3 times with lysis buffer, boiled in Laemmeli sample buffer, subjected to 4-20% SDS-PAGE, and analyzed by Western blotting with anti-EGFR antibody or anti-Sp35 antibody. The EGFR and Sp35 antibodies were visualized using anti-rabbit IgG-HRP.
Sp35 KO or WT VMs were lysed in RIPA buffer and pre-cleared by Protein A/G plus-Sepharose beads as described above. […]

- binding result: binds
B1: endogenous Sp35 (LINGO-1) in mouse ventral midbrain (VM) tissue (receptor, UniProt Q9D1T0 36-614, looked up)
chain: CPPRCECSAQDRAVLCHRKRFVAVPEGIPTETRLLDLGKNRIKTLNQDEFASFPHLEELELNENIVSAVEPGAFNNLFNLRTLGLRSNRLKLIPLGVFTGLSNLTKLDISENKIVILLDYMFQDLYNLKSLEVGDNDLVYISHRAFSGLNSLEQLTLEKCNLTSIPTEALSHLHGLIVLRLRHLNINAIRDYSFKRLYRLKVLEISHWPYLDTMTPNCLYGLNLTSLSITHCNLTAVPYLAVRHLVYLRFLNLSYNPIGTIEGSMLHELLRLQEIQLVGGQLAVVEPYAFRGLNYLRVLNVSGNQLTTLEESAFHSVGNLETLILDSNPLACDCRLLWVFRRRWRLNFNRQQPTCATPEFVQGKEFKDFPDVLLPNYFTCRRAHIRDRKAQQVFVDEGHTVQFVCRADGDPPPAILWLSPRKHLVSAKSNGRLTVFPDGTLEVRYAQVQDNGTYLCIAANAGGNDSMPAHLHVRSYSPDWPHQPNKTFAFISNQPGEGEANSTRATVPFPFDIKTLIIATTMGFISFLGVVLFCLVLLFLWSRGKGNTKHNIEIEYVPRKSDAGISSADAPRKFNMKMI
notes: Native protein in a tissue extract; Sp35 knock-out VM served as the control
